From paper doi:10.1101/2025.10.20.683411 (bioRxiv, 2025)

Experiments:
yNup100FG (aa1-580) = yNup100FG (aa1-580) (yeast, UniProt Q02629 1-580, fluorescein-5-maleimide label (labelled protein mixed with unlabelled protein)); experiment: fluorescence microscopy of particles formed by mixed purified labelled proteins
yNup116FG (aa1-725) = yNup116FG (aa1-725) (yeast, UniProt Q02630 1-725, fluorescein-5-maleimide label (labelled protein mixed with unlabelled protein)); experiment: as above
hNup153 (aa875-1475) = target: T1, hNup153 (aa875-1475) (human, UniProt P49790 875-1475, fluorescein-5-maleimide label (labelled protein mixed with unlabelled protein)); experiment: as above
T1 sequence: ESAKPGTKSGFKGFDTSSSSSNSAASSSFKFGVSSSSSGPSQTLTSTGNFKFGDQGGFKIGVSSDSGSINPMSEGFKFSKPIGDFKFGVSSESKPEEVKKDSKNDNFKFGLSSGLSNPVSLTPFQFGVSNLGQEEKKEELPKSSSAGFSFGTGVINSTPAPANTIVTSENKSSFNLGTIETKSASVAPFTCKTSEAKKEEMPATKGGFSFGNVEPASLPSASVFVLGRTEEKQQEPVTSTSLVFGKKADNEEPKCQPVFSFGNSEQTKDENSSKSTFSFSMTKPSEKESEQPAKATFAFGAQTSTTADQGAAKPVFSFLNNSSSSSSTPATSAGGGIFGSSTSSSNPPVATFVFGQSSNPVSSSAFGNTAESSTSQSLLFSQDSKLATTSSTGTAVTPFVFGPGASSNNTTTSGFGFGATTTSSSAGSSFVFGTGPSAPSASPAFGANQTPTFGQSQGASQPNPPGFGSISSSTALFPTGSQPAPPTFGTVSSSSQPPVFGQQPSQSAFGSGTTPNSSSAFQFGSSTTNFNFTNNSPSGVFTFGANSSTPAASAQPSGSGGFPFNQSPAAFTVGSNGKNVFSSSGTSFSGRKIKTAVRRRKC

[1] = target: the molecule itself; experiment: as above
[2] = target: the molecule itself; experiment: fluorescence microscopy of particles formed by one purified labelled protein

Measured: binding result

B1: DNAJB2 isoform a (natural protein, human)
chain: MASYYEILDVPRSASADDIKKAYRRKALQWHPDKNPDNKEFAEKKFKEVAEAYEVLSDKHKREIYDRYGREGLTGTGTGPSRAEAGSGGPGFTFTFRSPEEVFREFFGSGDPFAELFDDLGPFSELQNRGSRHSGPFFTFSSSFPGHSDFSSSSFSFSPGAGAFRSVSTSTTFVQGRRITTRRIMENGQERVEVEEDGQLKSVTINGVPDDLALGLELSRREQQPSVTSRSGGTQVQQTPASCPLDSDLSEDEDLQLAMAYSLSEMEAAGKKPADVFC
modifications: Alexa Fluor 594 C5-maleimide label (labelled protein mixed with unlabelled protein)
not listed: [2]
binds: all other assays above

B2: DNAJB8 (natural protein, human)
chain: MANYYEVLGVQASASPEDIKKAYRKLALRWHPDKNPDNKEEAEKKFKLVSEAYEVLSDSKKRSLYDRAGCDSWRAGGGASTPYHSPFDTGYTFRNPEDIFREFFGGLDPFSFEFWDSPFNSDRGGRGHGLRGAFSAGFGEFPAFMEAFSSFNMLGCSGGSHTTFSSTSFGGSSSGSSGFKSVMSSTEMINGHKVTTKRIVENGQERVEVEEDGQLKSVTVNGKEQLKWMDSKC
modifications: Alexa Fluor 594 C5-maleimide label (labelled protein mixed with unlabelled protein)
not listed: [2]
binds: all other assays above

B3: DNAJB6 isoform b, wildtype (natural protein)
chain: not shown
modifications: Alexa Fluor 594 C5-maleimide label (labelled protein mixed with unlabelled protein)
not listed: [1]
binds: all other assays above
